Experimental findings from patent US6001823A, “Treatment or prophylaxis of diseases caused by pilus-forming bacteria” (priority 1995, dated 1999) are described below.

“Also recorded” adds a separate entry of the source.

The nature of data set [1]: Water solubility of peptides. It is filed as physicochemical. On the set-up: key: *: Water insoluble peptides.
The target in data set [2] is T1, PapD (Escherichia coli, UniProt P15319).
T1 sequence (P15319 22-239): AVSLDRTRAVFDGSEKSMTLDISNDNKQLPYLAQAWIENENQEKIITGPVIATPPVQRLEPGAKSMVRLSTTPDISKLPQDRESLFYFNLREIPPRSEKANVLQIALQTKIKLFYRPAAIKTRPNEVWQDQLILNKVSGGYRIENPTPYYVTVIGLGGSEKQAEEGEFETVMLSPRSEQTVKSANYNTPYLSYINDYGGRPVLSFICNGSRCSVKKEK
Briefly: ELISA: PapD binding to peptides coated on microtiter wells. On the set-up: made in house; species or system E. coli. The settings on record: for binding of PapD to immobilized peptide: peptide coated on microtiter wells, ELISA; for reduction of binding of PapD to the immobilized peptide: variant of the PapG carboxyl terminal peptide. The procedure: The residues in the peptides were numbered starting with the carboxyl terminal residue as 1, and ending with the amino terminal residue. Peptides were also synthesized which deviated in length (G1'-16'WT, G1'-11'WT, G1'-7'WT) or sequence (G2'-21'amide, G1'-19'SV, G1'-19'NH2) from the wild type PapG carboxyl terminal sequence. Using an enzyme-linked immunosorbent assay (ELISA), we tested the ability of PapD to bind to each peptide coated on wells of microtiter plates:
5 mg/ml stock solutions of peptides in water or 50% acetic acid were diluted to a concentration of 2.5 pmol/50 μl in PBS. 50 μl of the peptide solution was coated overnight onto microtiter wells (Nunc-Immuno Plate Maxisorp) at 4° C. The solutions in the plates were discarded, and the wells were blocked with 200 μl 3% bovine serum albumin (BSA, Sigma) in PBS (120 mM NaCl/2.7 mM KCl/10 mM phosphate buffer salts, pH 7.4) for 2 hours at 25° C. The plates were washed vigorously 3 times with PBS and incubated with 50 μl of the indicated amount of purified PapD (Lindberg et al, 1989). After 3 washes with PBS, the wells were incubated with a 1:500 dilution of anti-PapD rabbit antiserum (Lindberg et al, 1989) in 3% BSA/PBS for 45 min. at 25° C. After 3 washes with PBS, the wells were incubated with a 1:1000 dilution of goat anti-rabbit IgG coupled to alkaline phosphatase (Sigma) in 3% BSA/PBS for 45 min. at 25° C. Following 3 washes with PBS and 3 washes with developing buffer (10 mM diethanolamine pH 9.5, 0,5 mM MgCl2), 50 μl filtered p-nitrophenyl phosphate substrate (Sigma) in developing buffer (10 mg/ml) was added. The absorbance at 405 nm was read after 60 min of incubation in the dark at 25° C.
A general note: In an ELISA, binding on a coated surface is turned into a signal by an enzyme label.

The target in data set [3] is T1, PapD. The experiment in a line: ELISA: peptide inhibition of PapD binding to MBP-G1'-140' fusion protein. On the set-up: species or system E. coli. The settings on record: PapD preincubated with peptide at 1:25 ratio. The procedure:
The ability of the peptides to inhibit the binding of PapD to the MBP-G1'-140' fusion protein was then investigated using the following ELISA test:
Stock solutions of MBP-G1'-140' proteins in PBS were diluted to 0.1 μM with PBS. The wells of microtiter plates were coated with 50 μl of the protein solutions overnight at 4° C. The wells were washed with PBS, and blocked with 200 μl of 3% bovine serum albumin (BSA) in PBS for 2 hours at 25° C. The plates were washed vigorously three times with PBS and incubated with 50 μl of 1-5 μM PapD proteins in 3% BSA-PBS for 45 minutes at 25° C. The PapD was preincubated with each of the peptides at a 1:25 ratio for 30 min before being added to the wells. After three washings with PBS, the wells were incubated with a 1:500 dilution of rabbit anti-PapD antiserum in 3% BSA-PBS for 45 minutes at 25° C. After three washings with PBS, the wells were incubated with a 1:1000 dilution of goat antiserum to rabbit IgG coupled to alkaline phosphatase in 3% BSA-PBS for 45 minutes at 25° C. After three washings with PBS and three washings with developing buffer (10 mM diethanolamine, 0.5 mM MgCl2), 50 μl filtered 1 mg/ml p-nitrophenyl phosphate in developing buffer was added, the reaction was incubated for 1 hour or longer if necessary in the dark at 25° C., and the absorbance at 405 nm was read.

For the next data set, the target named is T2, PapD-PapG complex (Escherichia coli, UniProt P15319).
T2 construct: made in house
T2 sequence (P15319 22-239): T1 sequence (P15319 22-239)
The experiment in a line: Reconstitution assay: restoration of PapD-PapG complex from reduced, denatured PapG. It is filed as biochemical, E. coli. The settings on record: PapD incubated with increasing amounts of peptide. The procedure:
B: PapD incubated with the G1'-19'WT, G1'-16'WT, K1'-19'WT, and G2'-21'amide was added to reduced, denatured PapD-PapG and the amount of PapD-PapG complex restored in each sample was quantitated as described in example 2. The % inhibition represents the amount of the PapD-PapG complex restored with peptide-treated PapD compared to the amount of PapD-PapG complex restored with untreated PapD. The graph represent the average of 4 experiments. PapD and PapD-PapG complex were prepared as described in F. Lindberg et al, J. Bacteriol. 171, 6052 (1989) and S. J. Hultgren et al., Proc. Natl. Acad. Sci. U.S.A. 86, 4357 (1989).
FIG. 7: Ability of PapD Arg-8, Lys-112 and Thr-7 mutants to bind PapG and restore the PapD-PapG complex in vitro. 0.4 μg of PapD-PapG complex was reduced and denatured as described in FIG. 2B. The denatured PapD-PapG complex was then diluted with 0-630 ng purified wild type (WT) or mutant PapD. The amount of PapD-PapG restored in the samples was determined as in FIG. 2B and was graphed as a percentage of the greatest amount of PapD-PapG restored. The values graphed represent the average of 3 experiments. Wild type and mutant PapD and the PapD-PapG complex were purified as described in F. Lindberg et al, J. Bacteriol. 171, 6052 (1989) and S. J. Hultgren et al., Proc. Natl. Acad. Sci. U.S.A. 86, 4357 (1989).
As described in Kuehn et al., Proc. Natl. Acad. Sci. U.S.A. 88, 10586 (1991), native PapD is able to bind to reduced, denatured PapG and restore the PapD-PapG complex in vitro. This reconstitution assay was used to determine the ability of the peptides to inhibit PapD activity in vitro.
The PapD-peptide solution was then added to the reduced, denatured PapD-PapG, incubated at 25° C. for 10 min, and applied to an IEF 3-9 gel (Pharmacia). The amount of PapD-PapG restored in each sample was quantitated by densitometry of the silver stained IEF band corresponding to the pI of the DG complex.

For data set [4], the target named is T1, PapD. The experiment in a line: Protection of PapD against tryptic cleavage by peptides. It is filed as biochemical, E. coli. On the set-up: made in house. The settings on record: PapD preincubated with 20-fold molar excess of peptide. The procedure:
A Lower: The rate of trypsin cleavage of PapD decreased upon preincubation with the G1'-19'WT, G1'-16'WT or K1'-19'WT peptides, but the G2'-21'amide peptide had no effect. 50 μg of purified PapD was preincubated for 15 min at 25° C. with a 20-fold molar excess of G1'-19'WT, G1'-16'WT, K1'-19'WT or G2'-21'amide peptides (any trypsin cleavage sites in these peptides occur at their amino termini where they were predicted not to interfere with PapD), or an equivalent volume of water. Each sample was then incubated at 37° C. with 3.2 μg of trypsin. Aliquots were removed after 0, 5, 10, 20, 30 and 40 min and boiled in SDS-PAGE sample buffer to stop the digestion. The samples were applied to 15% SDS-PAGE gels and the amount of full-length PapD remaining was determined by densitometry of Coomassie blue stained bands corresponding to full-length PapD which are shown.
400 μg of PapD was partially digested by incubation with either 4,5 μg trypsin or 0.45 μg chymotrypsin on PBS for 20 min. at 37° C. The PapD digests were applied to a C-18 HPLC column (Beckman) and 2 major fragments were eluted with a 0-100% acetonitrile gradient in 0.01% trifluoroacetic acid. The PapD fragments were identified by their molecular weight on SDS-PAGE and amino-terminal sequencing. The N-terminal amino acid sequences of the approximately 14 kDa tryptic and chymotryptic fragments were identified as residues 100-108 and 104-109 of PapD, respectively, corresponding to cleavage after Lys-99 (for trypsin) and Leu-103 (for chymotrypsin). The N-terminal sequences of the 11 and 12 kDa bands in the digests were identical to the N-terminal sequence of PapD.

For data set [5], the target named is T1, PapD. Briefly: Soluble inhibition ELISA: peptide inhibition of PapD binding to G1'-19'WT-coated wells. On the set-up: made in house; species or system E. coli. The settings on record: for % Inhibition: 25-fold molar excess of peptide, 100 pmol/well PapD, G1'-19'WT-coated wells; for inhibition of PapD binding to immobilized G1'-19'WT by soluble peptide: peptide in solution. The procedure:
In addition, the ability of water-soluble peptides to inhibit PapD binding to G1'-19'WT-coated wells in a soluble inhibition ELISA were tested, since peptide conformations may have been affected by binding to the plastic microtiter plates:
Microtiter wells were coated overnight at 4° C. with 50 μl of 2,5 pmol/50 μl of the G1'-19'WT peptide. The wells were washed with PBS and blocked with 3% bovine serum albumin (BSA). A 25-fold molar excess of each test peptide was pre-incubated with 100 pmoles PapD for 30 min. and the PapD-peptide solution was then added to the coated wells and incubated at 25° C. for 45 min in the presence of 3% BSA/PBS. The subsequent primary antibody, secondary antibody and developing steps are described above. The ability of the peptides to inhibit binding of PapD to the G1'-19'WT peptide was calculated by dividing the amount of PapD binding in the presence of peptide with the amount of PapD binding in the presence of water. 0% inhibition includes values where binding was greater than that of PapD pre-incubated with H2 O.
The % inhibition represents the percentage of PapD binding in the presence of the peptide compared to in the presence of water and are the average of two experiments performed duplicate: […]

A word on the % Inhibition: it is the share of the control response that was lost under treatment.

With “H-SGSMTMVLSFP-OH [G1'-11'WT, NH2--SGSMTMVLSFP--COOH]”, the water solubility entry in data set [1] is listed as “*”. Also, on PapD [2], the “binding of PapD to immobilized peptide” value was “binds”. Further, the “inhibition of binding of PapD to MBP-G1'-140' fusion protein” value at PapD [3] is recorded as “significantly more potent”.

With “NH2--EEGKRKPGELSGSMTMVLSF--CONH2 (H-EEGKRKPGELSGSMTMVLSF-NH2) [G2'-21'amide]”, in the data set with PapD [2], the “binding of PapD to immobilized peptide” value is recorded as “reduced binding” and the “reduction of binding of PapD to the immobilized peptide” value is “approximately 75%”. Moreover, the “inhibition of restoration of the PapD-PapG complex by PapD” value (from here on “inhibition of restoration … by PapD”) with PapD-PapG complex is given as “no effect”. The “rate of tryptic cleavage of PapD” value with PapD [4] is reported as “no effect”. Also, in the data set with PapD [5], the “% Inhibition” value amounted to 0% and the “inhibition of PapD binding to immobilized G1'-19'WT by soluble peptide” value (from here on “inhibition of PapD binding”) is recorded as “abolished binding”.

As to “NH2--GILNGGDFQTTASMAMIYN--COOH (H-GILNGGDFQTTASMAMIYN-OH) [F1'-19'WT]”, the “binding of PapD to immobilized peptide” value in the data set with PapD [2] was “moderately”.

“NH2--GKRKPGELSGSMTMVLSFP--CONH2 (H-GKRKPGELSGSMTMVLSFP-NH2) [G1'-19'amide]”: the “binding of PapD to immobilized peptide” value in the data set with PapD [2] was “did not affect binding”. Besides, in the data set with PapD [5], the “% Inhibition” value worked out at 56% and the “inhibition of PapD binding” value is on record as “did not affect binding”.

As to “NH2--GKRKPGELSGSMTMVLSFP--COOH (H-GKRKPGELSGSMTMVLSFP-OH) [G1'-19'WT, 19 carboxyl terminal residues of PapG]”, the “binding of PapD to immobilized peptide” value in the data set with PapD [2] is recorded as “bound well”. For the same substance, the “inhibition of restoration … by PapD” value in the data set with PapD-PapG complex is listed as “inhibit restoration”. Moreover, the “rate of tryptic cleavage of PapD” value with PapD [4] is “decreased; also recorded: reduced the rate of tryptic cleavage”. Besides, the “% Inhibition” value in the data set with PapD [5] is 63%.

For “NH2--GKRKPVELSGSMTMVLSSP--COOH (H-GKRKPVELSGSMTMVLSSP-OH) [G1'-19'SV]”, the “reduction of binding of PapD to the immobilized peptide” value in the data set with PapD [2] came to 36%. Besides, the “inhibition of PapD binding” value with PapD [5] is reported as “as efficient a soluble PapD inhibitor as the peptide G1'-19'WT”.

On to “NH2--KKLEAGNYFAVLGFRVDYE--COOH (H-KKLEAGNYFAVLGFRVDYE-OH) [H1'-19'WT]”, for which the “binding of PapD to immobilized peptide” value in the data set with PapD [2] is “no binding”.

As for “NH2--KSVVPGDYEATATFELTYR--COOH (H-KSVVPGDYEATATFELTYR-OH) [K1'-19'WT]”, the “binding of PapD to immobilized peptide” value in the data set with PapD [2] is “moderately”. Besides, the “inhibition of restoration … by PapD” value with PapD-PapG complex was “inhibit restoration”. For the same substance, the “rate of tryptic cleavage of PapD” value with PapD [4] is given as “decreased; also recorded: reduced the rate of tryptic cleavage”.

For “NH2--QNLIAGPFSATATLVASYS--COOH (H-QNLIAGPFSATATLVASYS-OH) [E1'-19'WT]”, the water solubility result in data set [1] is listed as “*”. Moreover, the “binding of PapD to immobilized peptide” value in the data set with PapD [2] is given as “moderately”.

Take “NH2--YALAPNAVIPTSLALL--COOH (H-YALAPNAVIPTSLALL-OH) [MS, random hydrophobic peptide, reference compound]”: the “binding of PapD to immobilized peptide” value with PapD [2] is on record as “no binding”. For the same substance, the “% Inhibition” value with PapD [5] was determined as 1%.
